Reference: the supplement of paper PMC11246515
± gives the standard deviation of the averaged measurements.

Experiment: total protein half-life in vivo (active degradation + dilution); higher = more stable protein
[1] = E. coli NCM3722 delta-clpP delta-lon delta-hslV, growth: N-lim chemostat, doubling time 6 h
[2] = E. coli NCM3722 delta-clpP, growth: N-lim chemostat, doubling time 6 h
[3] = E. coli NCM3722 delta-hslV, growth: N-lim chemostat, doubling time 6 h
[4] = E. coli NCM3722 delta-lon, growth: N-lim chemostat, doubling time 6 h
[5] = E. coli NCM3722 delta-smpB, growth: N-lim chemostat, doubling time 6 h
[6] = wild type E. coli NCM3722, growth: C-lim chemostat, doubling time 3 h
[7] = wild type E. coli NCM3722, growth: C-lim chemostat, doubling time 6 h
[8] = wild type E. coli NCM3722, growth: C-lim chemostat, doubling time 12 h
[9] = wild type E. coli NCM3722, growth: N-lim chemostat, doubling time 6 h
[10] = wild type E. coli NCM3722, growth: N-lim chemostat, doubling time 12 h
[11] = wild type E. coli NCM3722, growth: P-lim chemostat, doubling time 6 h
[12] = wild type E. coli NCM3722, growth: P-lim chemostat, doubling time 12 h

Sequence: MKQTVAAYIAKTLESAGVKRIWGVTGDSLNGLSDSLNRMGTIEWMSTRHEEVAAFAAGAEAQLSGELAVCAGSCGPGNLHLINGLFDCHRNHVPVLAIAAHIPSSEIGSGYFQETHPQELFRECSHYCELVSSPEQIPQVLAIAMRKAVLNRGVSVVVLPGDVALKPAPEGATMHWYHAPQPVVTPEEEELRKLAQLLRYSSNIALMCGSGCAGAHKELVEFAGKIKAPIVHALRGKEHVEYDNPYDVGMTGLIGFSSGFHTMMNADTLVLLGTQFPYRAFYPTDAKIIQIDINPASIGAHSKVDMALVGDIKSTLRALLPLVEEKADRKFLDKALEDYRDARKGLDDLAKPSEKAIHPQYLAQQISHFAADDAIFTCDVGTPTVWAARYLKMNGKRRLLGSFNHGSMANAMPQALGAQATEPERQVVAMCGDGGFSMLMGDFLSVVQMKLPVKIVVFNNSVLGFVAMEMKAGGYLTDGTELHDTNFARIAEACGITGIRVEKASEVDEALQRAFSIDGPVLVDVVVAKEELAIPPQIKLEQAKGFSLYMLRAIISGRGDEVIELAKTNWLR
- total protein half-life in vivo [1]: 5.5 ± 0.51 h
- total protein half-life in vivo [2]: 5.2 ± 0.97 h
- total protein half-life in vivo [3]: 4.77 ± 0.08 h
- total protein half-life in vivo [4]: 5.321 ± 0.051 h
- total protein half-life in vivo [5]: 4.71 ± 0.4 h
- total protein half-life in vivo [6]: 3.19 ± 0.15 h
- total protein half-life in vivo [7]: 5.59 ± 0.21 h
- total protein half-life in vivo [8]: 11.2 ± 2.6 h
- total protein half-life in vivo [9]: 4.7 ± 0.064 h
- total protein half-life in vivo [10]: 7.734 ± 0.064 h
- total protein half-life in vivo [11]: 5.614 ± 0.02 h
- total protein half-life in vivo [12]: 11.6 ± 0.17 h

Sequence: MHQSGSVSLCRSAISVLVATALYSPIALASTVEYGETVDGVVLEKDIQLVYGTANNTKINPGGEQHIKEFGVSNNTEINGGYQYIEMNGAAEYSVLNDGYQIVQMGGAANQTTLNNGVLQVYGAANDTTIKGGRLIVEKDGGAVFVAIEKGGLLEVKEGGFAFAVDQKAGGAIKTTTRAMEVFGTNRLGQFDIKNGIANNMLLENGGSLRVEENDFAYNTTVDSGGLLEVMDGGTVTGVDKKAGGKLIVSTNALEVSGPNSKGQFSIKDGVSKNYELDDGSGLIVMEDTQAIDTILDKHATMQSLGKDTGTKVQANAVYDLGRSYQNGSITYSSKAISENMVINNGRANVWAGTMVNVSVRGNDGILEVMKPQINYAPAMLVGKVVVSEGASFRTHGAVDTSKADVSLENSVWTIIADITTTNQNTLLNLANLAMSDANVIMMDEPVTRSSVTASAENFITLTTNTLSGNGNFYMRTDMANHQSDQLNVTGQATGDFKIFVTDTGASPAAGDSLTLVTTGGGDAAFTLGNAGGVVDIGTYEYTLLDNGNHSWSLAENRAQITPSTTDVLNMAAAQPLVFDAELDTVRERLGSVKGVSYDTAMWSSAINTRNNVTTDAGAGFEQTLTGLTLGIDSRFSREESSTIRGLIFGYSHSDIGFDRGGKGNIDSYTLGAYAGWEHQNGAYVDGVVKVDRFANTIHGKMSNGATAFGDYNSNGAGAHVESGFRWVDGLWSVRPYLAFTGFTTDGQDYTLSNGMRADVGNTRILRAEAGTAVSYHMDLQNGTTLEPWLKAAVRQEYADSNQVKVNDDGKFNNDVAGTSGVYQAGIRSSFTPTLSGHLSVSYGNGAGVESPWNTQAGVVWTF
- total protein half-life in vivo [1]: 5.12 h

Sequence: MTNLTLDVNIIDFPSIPVAMLPHRCSPELLNYSVAKFIMWRKETGLSPVNQSQTFGVAWDDPATTAPEAFRFDICGSVSEPIPDNRYGVSNGELTGGRYAVARHVGELDDISHTVWGIIRHWLPASGEKMRKAPILFHYTNLAEGVTEQRLETDVYVPLA
- total protein half-life in vivo [1]: 6.15 h

Sequence: MGRILLDLSNEVIKQLDDLEVQRNLPRADLLREAVDQYLINQSQTARTSVPGIWQGCEEDGVEYQRKLREEW [P0AFU6]
- total protein half-life in vivo [2]: 6.89 h

Sequence: MPDAKKQGRSNKAMTFFVCFLAALAGLLFGLDIGVIAGALPFIADEFQITSHTQEWVVSSMMFGAAVGAVGSGWLSFKLGRKKSLMIGAILFVAGSLFSAAAPNVEVLILSRVLLGLAVGVASYTAPLYLSEIAPEKIRGSMISMYQLMITIGILGAYLSDTAFSYTGAWRWMLGVIIIPAILLLIGVFFLPDSPRWFAAKRRFVDAERVLLRLRDTSAEAKRELDEIRESLQVKQSGWALFKENSNFRRAVFLGVLLQVMQQFTGMNVIMYYAPKIFELAGYTNTTEQMWGTVIVGLTNVLATFIAIGLVDRWGRKPTLTLGFLVMAAGMGVLGTMMHIGIHSPSAQYFAIAMLLMFIVGFAMSAGPLIWVLCSEIQPLKGRDFGITCSTATNWIANMIVGATFLTMLNTLGNANTFWVYAALNVLFILLTLWLVPETKHVSLEHIERNLMKGRKLREIGAHD [P0AEP1]
- total protein half-life in vivo [2]: 4.26 h
- total protein half-life in vivo [3]: 4.28 h
- total protein half-life in vivo [5]: 6.91 h
- total protein half-life in vivo [6]: 2.58 h
- total protein half-life in vivo [7]: 4.51 h
- total protein half-life in vivo [11]: 5.628 ± 0.028 h
- total protein half-life in vivo [12]: 9.86 h

Sequence: MSKISDLNYSQHITLADNFKQKSEVLNTWRVGMNDFARIAGGQDNRRNILSPGAFLEFLAKIFTLGYVDFSKRSNEAGRNMMAHIKSSSYSKDTNGNEKMKFYMNNPVGERADSPKVIIEISLSTITTMGTRQGHTAIIFPQPDGSTNRYEGKSFERKDESSLHLITNKVLACYQSEANKKIARLLNNNQELNNLQKLNNLQKLNNLLKLNNIQGLNNPQELNNPQNLNDSQELNNSQELNSPQELNDPQELNNSQDLNNSKVSCTVSVDSTITGLLKEPLNNALLAIRNEHLLLMPHVCDESISYLLGEKGILEEIDKLYALNDHGIDNDKVGNNEINDIKVNLSHILIDSLDDAKVNLTPVIDSILETFSKSPYINDVRILDWCFNKSMQYFDDTKKIKHACSVINHINLRSDQSKIAETLFFNLDKEPYKNSPELQGLIWNKLVVYVNEFNLSNREKTNLIQRLFDNVESIFNEVPVSILVNDIFMNDFFMKNPEMINWYFPQLLKSYEGEKIYFDNLKYDLNDNDKESNKEILKNQPDNVIKEKLNNEYKLRFRMMQTILQSRVNVLPYINEQRLNKLNPPENLRIAIEHFGWKNRPITA
- total protein half-life in vivo [1]: 5.05 h
- total protein half-life in vivo [2]: 4.13 ± 0.42 h
- total protein half-life in vivo [3]: 4.07 h
- total protein half-life in vivo [4]: 3.78 h
- total protein half-life in vivo [6]: 1.27 h
- total protein half-life in vivo [7]: 3.95 ± 2.7 h
- total protein half-life in vivo [8]: 8.85 h
- total protein half-life in vivo [11]: 2.71 h
- total protein half-life in vivo [12]: 2.84 ± 1.1 h

Sequence: MSLAGKKIVLGVSGGIAAYKTPELVRRLRDRGADVRVAMTEAAKAFITPLSLQAVSGYPVSDSLLDPAAEAAMGHIELGKWADLVILAPATADLIARVAAGMANDLVSTICLATPAPVAVLPAMNQQMYRAAATQHNLEVLASRGLLIWGPDSGSQACGDIGPGRMLDPLTIVDMAVAHFSPVNDLKHLNIMITAGPTREPLDPVRYISNHSSGKMGFAIAAAAARRGANVTLVSGPVSLPTPPFVKRVDVMTALEMEAAVNASVQQQNIFIGCAAVADYRAATVAPEKIKKQATQGDELTIKMVKNPDIVAGVAALKDHRPYVVGFAAETNNVEEYARQKRIRKNLDLICANDVSQPTQGFNSDNNALHLFWQDGDKVLPLERKELLGQLLLDEIVTRYDEKNRR [P0ABQ0]
- total protein half-life in vivo [1]: 6.25 ± 0.61 h
- total protein half-life in vivo [2]: 6.16 ± 0.64 h
- total protein half-life in vivo [3]: 5.48 ± 0.55 h
- total protein half-life in vivo [4]: 5.48 ± 0.67 h
- total protein half-life in vivo [5]: 4.75 ± 0.079 h
- total protein half-life in vivo [6]: 3.15 ± 0.096 h
- total protein half-life in vivo [7]: 5.63 ± 0.26 h
- total protein half-life in vivo [8]: 12.5 ± 3.3 h
- total protein half-life in vivo [9]: 4.7 ± 0.6 h
- total protein half-life in vivo [10]: 8.72 ± 0.93 h
- total protein half-life in vivo [11]: 6.17 ± 0.24 h
- total protein half-life in vivo [12]: 11.8 ± 0.15 h

Sequence: MSWQQFKHAWLIKFWAPIPAVIAAGILSTYYFGITGTFWAVTGEFTRWGGQLLQLFGVHAEEWGYFKIIHLEGSPLTRIDGMMILGMFGGCFAAALWANNVKLRMPRSRIRIMQAIIGGIIAGFGARLAMGCNLAAFFTGIPQFSLHAWFFAIATAIGSWFGARFTLLPIFRIPVKMQKVSAASPLTQKPDQARRRFRLGMLVFFGMLGWALLTAMNQPKLGLAMLFGVGFGLLIERAQICFTSAFRDMWITGRTHMAKAIIIGMAVSAIGIFSYVQLGVEPKIMWAGPNAVIGGLLFGFGIVLAGGCETGWMYRAVEGQVHYWWVGLGNVIGSTILAYYWDDFAPALATDWDKINLLKTFGPMGGLLVTYLLLFAALMLIIGWEKRFFRRAAPQTAKEIA
- total protein half-life in vivo [2]: 1.86 h
- total protein half-life in vivo [3]: 2.16 h
- total protein half-life in vivo [5]: 3.67 h
- total protein half-life in vivo [7]: 4.44 ± 0.089 h
- total protein half-life in vivo [8]: 6.8 ± 1.4 h
- total protein half-life in vivo [9]: 3.69 h
- total protein half-life in vivo [11]: 2.95 h
